# From article PMC7545097, “Mapping the native interaction surfaces of PREP1 with PBX1 by cross-linking mass-spectrometry and mutagenesis” (Scientific Reports, 2020)
# T1: PBX1Δ43-55 (human, UniProt P40424 1-430, Δ43-55)
# T1 construct: PBX1, residues 1-430, with an internal deletion; source: E. coli, purified
# T1 sequence (looked up): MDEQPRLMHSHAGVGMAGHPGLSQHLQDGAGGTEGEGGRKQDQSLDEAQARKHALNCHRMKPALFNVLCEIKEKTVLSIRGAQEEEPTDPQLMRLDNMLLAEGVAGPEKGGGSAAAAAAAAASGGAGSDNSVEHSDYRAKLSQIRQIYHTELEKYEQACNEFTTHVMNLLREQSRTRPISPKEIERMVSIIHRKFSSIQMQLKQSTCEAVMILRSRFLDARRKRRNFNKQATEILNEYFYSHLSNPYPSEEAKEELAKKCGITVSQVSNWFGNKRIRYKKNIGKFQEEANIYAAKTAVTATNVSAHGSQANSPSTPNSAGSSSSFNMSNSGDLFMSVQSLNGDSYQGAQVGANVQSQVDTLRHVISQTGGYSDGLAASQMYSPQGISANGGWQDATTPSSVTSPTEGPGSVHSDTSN
# T2: PREP1 L129A (UniProt P55347 1-436, L129A)
# T2 construct: PREP1 (PKNOX1), residues 1-436
# T2 sequence (looked up): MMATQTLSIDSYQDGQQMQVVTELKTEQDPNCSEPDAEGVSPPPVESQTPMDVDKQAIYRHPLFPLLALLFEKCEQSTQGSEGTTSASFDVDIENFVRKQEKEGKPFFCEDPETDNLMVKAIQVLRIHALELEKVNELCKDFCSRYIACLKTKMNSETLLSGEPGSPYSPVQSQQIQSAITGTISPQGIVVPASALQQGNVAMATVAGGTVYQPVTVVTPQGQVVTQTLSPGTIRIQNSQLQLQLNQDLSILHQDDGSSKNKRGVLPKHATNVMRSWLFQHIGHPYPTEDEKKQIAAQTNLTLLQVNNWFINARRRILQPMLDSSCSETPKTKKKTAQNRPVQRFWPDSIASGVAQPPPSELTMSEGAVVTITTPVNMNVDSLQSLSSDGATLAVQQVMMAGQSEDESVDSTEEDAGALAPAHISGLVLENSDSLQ
# T3: PREP1 L67A (UniProt P55347 1-436, L67A)
# T3 construct: PREP1 (PKNOX1), residues 1-436
# T3 sequence (looked up): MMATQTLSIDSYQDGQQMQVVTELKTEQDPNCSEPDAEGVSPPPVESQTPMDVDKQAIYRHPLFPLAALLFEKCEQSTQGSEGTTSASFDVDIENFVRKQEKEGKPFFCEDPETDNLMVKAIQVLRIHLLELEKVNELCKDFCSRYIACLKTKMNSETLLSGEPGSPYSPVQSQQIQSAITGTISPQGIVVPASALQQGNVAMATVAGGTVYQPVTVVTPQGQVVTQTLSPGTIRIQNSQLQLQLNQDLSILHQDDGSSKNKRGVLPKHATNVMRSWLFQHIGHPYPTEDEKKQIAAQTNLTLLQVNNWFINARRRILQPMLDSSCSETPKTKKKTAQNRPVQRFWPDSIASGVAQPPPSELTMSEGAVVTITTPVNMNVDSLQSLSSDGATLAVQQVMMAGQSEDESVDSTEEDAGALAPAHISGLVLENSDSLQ
# T4: PREP1 L63A (UniProt P55347 1-436, L63A)
# T4 construct: PREP1 (PKNOX1), residues 1-436
# T4 sequence (looked up): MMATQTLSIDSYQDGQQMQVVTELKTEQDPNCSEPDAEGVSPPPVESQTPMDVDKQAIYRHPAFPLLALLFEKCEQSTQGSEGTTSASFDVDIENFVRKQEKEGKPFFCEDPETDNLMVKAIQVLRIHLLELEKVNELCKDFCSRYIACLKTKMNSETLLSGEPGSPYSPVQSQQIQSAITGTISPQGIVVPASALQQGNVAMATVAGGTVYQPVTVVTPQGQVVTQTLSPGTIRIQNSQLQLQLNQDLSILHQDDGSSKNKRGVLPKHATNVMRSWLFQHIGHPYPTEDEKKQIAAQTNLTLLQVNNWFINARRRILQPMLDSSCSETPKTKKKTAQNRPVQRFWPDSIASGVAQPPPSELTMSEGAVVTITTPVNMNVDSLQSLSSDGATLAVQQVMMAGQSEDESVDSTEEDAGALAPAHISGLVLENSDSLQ
# Tests used:
# Test in all cases: time-resolved fluorescence immunoassay (TR-FIA); plate coated with monoclonal anti-PBX1; PBX1 pre-incubated with PREP1 or MEIS1 for 1 h on ice, 10 µg/mL in 1% BSA PBS, 1 h at room temperature on the plate; detected with anti-PREP1 or biotinylated anti-MEIS1/2 and Eu^3+ conjugates; normalised to the wild-type protein taken as 1
# Settings in all cases: both partners purified
# [1] = molecular target: T1, PBX1Δ43-55
# [2] = molecular target: T2, PREP1 L129A
# [3] = molecular target: T3, PREP1 L67A
# [4] = molecular target: T4, PREP1 L63A
Binder,binding relative to wild type [1] [%],binding result [2],binding result [3],binding result [4]
"PREP1_(1-436), wild-type recombinant (TR-FIA) (natural protein, UniProt P55347 1-436, looked up, also called wild-type PREP1; PKNOX1; source: E. coli, purified) MMATQTLSIDSYQDGQQMQVVTELKTEQDPNCSEPDAEGVSPPPVESQTPMDVDKQAIYRHPLFPLLALLFEKCEQSTQGSEGTTSASFDVDIENFVRKQEKEGKPFFCEDPETDNLMVKAIQVLRIHLLELEKVNELCKDFCSRYIACLKTKMNSETLLSGEPGSPYSPVQSQQIQSAITGTISPQGIVVPASALQQGNVAMATVAGGTVYQPVTVVTPQGQVVTQTLSPGTIRIQNSQLQLQLNQDLSILHQDDGSSKNKRGVLPKHATNVMRSWLFQHIGHPYPTEDEKKQIAAQTNLTLLQVNNWFINARRRILQPMLDSSCSETPKTKKKTAQNRPVQRFWPDSIASGVAQPPPSELTMSEGAVVTITTPVNMNVDSLQSLSSDGATLAVQQVMMAGQSEDESVDSTEEDAGALAPAHISGLVLENSDSLQ",80,–,–,–
"PBX1_(1-430), wild-type recombinant (natural protein, human, UniProt P40424 1-430, looked up, also called wild-type PBX1; purified recombinant human PBX1; source: E. coli, purified) MDEQPRLMHSHAGVGMAGHPGLSQHLQDGAGGTEGEGGRKQDIGDILQQIMTITDQSLDEAQARKHALNCHRMKPALFNVLCEIKEKTVLSIRGAQEEEPTDPQLMRLDNMLLAEGVAGPEKGGGSAAAAAAAAASGGAGSDNSVEHSDYRAKLSQIRQIYHTELEKYEQACNEFTTHVMNLLREQSRTRPISPKEIERMVSIIHRKFSSIQMQLKQSTCEAVMILRSRFLDARRKRRNFNKQATEILNEYFYSHLSNPYPSEEAKEELAKKCGITVSQVSNWFGNKRIRYKKNIGKFQEEANIYAAKTAVTATNVSAHGSQANSPSTPNSAGSSSSFNMSNSGDLFMSVQSLNGDSYQGAQVGANVQSQVDTLRHVISQTGGYSDGLAASQMYSPQGISANGGWQDATTPSSVTSPTEGPGSVHSDTSN",–,binds,binds,binds
